Source: article PMC314469, “Protein Interaction Networks by Proteome Peptide Scanning” (PLoS Biology, 2004)

T1: amphyphisin SH3 (AMPH_HUMAN), P49418
T1 chain: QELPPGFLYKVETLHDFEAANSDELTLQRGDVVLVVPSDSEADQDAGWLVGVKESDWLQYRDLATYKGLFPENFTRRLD


Legend:
[1] = biological target: T1, amphyphisin SH3 (AMPH_HUMAN), P49418; experiment: SPOT array
[2] = biological target: endophilin SH3 (SH3G2_HUMAN), Q99962; experiment: SPOT array

Binder | normalised SPOT signal, Boehringer light units (BLU); mean over the file's lines of this peptide [1] | normalised SPOT signal, Boehringer light units (BLU); mean over the file's lines of this peptide [2]
SSKNIYRPDKFLQS [P28907 274-287] | 34 | 63.6
SSNFPRRPDSGDVT [Q9BYH1 392-405] | 29.9 | 67.7
SSQRPGRPARVALP [P98161 2194-2207] | 2220 | 13500
SSRAPPRPAKTTDP [Q9P2Q1 364-377] | 378 | 279
SSTPPPRPPVLEEW [Q9UL65 458-472] | 29.8 | 110
SDFSPSKPPSGPGK [Q9BZH6 185-199] | 52 | 63.8
SDREPTRPPRPILQ [Q9NQ53 86-99] | 3890 | 52.9
SDSKPKRPQPSREI [Q96JP2 1105-1118] | 13.6 | 44.6
SEAAPRRPEATAAP [Q9H677 423-436] | 26.1 | 16.1
SEDDFYRPSREQPL [Q9Y4G2 445-458] | 142 | 92.5
AWQQLRRPEASETL [Q9BTX9 18-31] | 29.3 | 15.9
SEDPLKRPVVYVKG [Q9ULT6 127-140] | 21.3 | 58.8
SEGSLTRPKKAIPP [O14810 90-103] | 0 | 68.4
SEPHIKRPMNAFMV [Q9BXQ5 597-610] | 32 | 63.7
SESRIRRPMNAFMV [Q9BT81 41-54] | 0 | 32.9
SFAYPNRPDRPVLK [Q03519 474-487] | 1280 | 245
SFLSLRRPWNWIAH [O15229 449-462] | 57.7 | 500
SFLRLRRPWNWIAH [Q9H1Y5 130-143] | 120 | 351
SFLTLTRPDRALVR [Q9H6A9 133-146] | 894 | 211
SFQSPTRPPLASPT [Q9UGJ0 207-221] | 27.7 | 161
SFSELVRPFKSNKS [O00529 218-231] | 32.8 | 106

Binder | normalised SPOT signal, Boehringer light units (BLU); mean over the file's lines of this peptide [1] | normalised SPOT signal, Boehringer light units (BLU); mean over the file's lines of this peptide [2]
AWVSPRRPDEEQRP [Q96MG2 305-318] | 57.9 | 398
SFSHLKRPQQGAGN [O43190 163-176] | 26.3 | 32.4
SFTALRRPSLRREA [O76050 230-243] | 65.1 | 27.6
SGAEIKRPGASVKV [O95978 26-39] | 34.4 | 32.7
SGAPPTKPPTTPVG [P54259 267-281] | 41.3 | 65.4
SGDQLKRPFGAFRS [Q9Y6H5 853-866] | 20.6 | 75.5
SGEQLPRPTRGRMR [Q9H254 103-116] | 873 | 210
SGERLPRPDKGKMR [Q08043 87-100] | 91.2 | 47.7
SGGIPKRPSSPVIS [Q96T17 281-294] | 46.1 | 1080
SGGKIRRPANVPID [Q16322 147-160] | 0 | 94.6
SGGRIRRPVNVPID [P22001 113-126] | 29 | 104
SAGLPGKPPAIQAS [O95428 427-441] | 42.4 | 50.3
SGGRLKRPVNVPFD [P22459 237-250] | 11.4 | 37.8
SGGRLRRPAHVPLD [Q9BYS4 74-87] | 20.8 | 24.7
SGGRLRRPVNVPLD [Q09470 98-111] | 33.6 | 44
SGGRLRRPVNVSLD [P22460 181-194] | 56.9 | 54.6
SGGRPIKPPKKDLE [Q15059 280-294] | 48.5 | 66
SGGRPLRPPHPVAK [O76081 141-155] | 718 | 6230
SGKGLRRPHSTVEE [Q9P2L5 16-29] | 44.8 | 17.2
SGLAPKRPGPAGEL [Q16849 127-140] | 22.9 | 11.3
SGLRLRRPRVSSTE [Q9H3P9 250-263] | 67.4 | 44.7
